# Measured values from the Human Domainome abundance scans (Beltran et al. 2025).
# ± gives the uncertainty stated by the source.
# B1: E3 ubiquitin-protein ligase Midline-1, residues 172 to 214; numbered along this chain, O15344 (parent)
# chain: GLMCLEHEDEKVNMYCVTDDQLICALCKLVGRHRDHQVAALSE
# Variants of: B1
# Assay: abundance fitness (aPCA) (normalised: wild type 0, dead -1); higher = more abundant; growth selection in yeast, the domain comes from the species named
# Settings: Homo sapiens
row,Variant,abundance fitness
1,GLMCLEHEDEKVNMYCVTDVQLICALCKLVGRHRDHQVAALSE [D20V],-0.33 ± 0.064
2,GLMCLEHEDEKVNMYCVTDWQLICALCKLVGRHRDHQVAALSE [D20W],-0.753 ± 0.1
3,GLMCLEHEDEKVNMYCVTDYQLICALCKLVGRHRDHQVAALSE [D20Y],-0.464 ± 0.15
4,GLMCLEHEDEKVNMYCVTDRQLICALCKLVGRHRDHQVAALSE [D20R],-0.083 ± 0.05
5,GLMCLEHEDEKVNMYCVTDCQLICALCKLVGRHRDHQVAALSE [D20C],-0.308 ± 0.098
6,GLMCLEHEDEKVNMYCVTDIQLICALCKLVGRHRDHQVAALSE [D20I],-0.543 ± 0.15
7,GLMCLEHEDEKVNMYCVTDHQLICALCKLVGRHRDHQVAALSE [D20H],-0.106 ± 0.11
8,GLMCLEHEDEKVNMYCVTDQQLICALCKLVGRHRDHQVAALSE [D20Q],0.099 ± 0.064
9,GLMCLEHEDEKVNMYCVTDMQLICALCKLVGRHRDHQVAALSE [D20M],-0.067 ± 0.27
10,GLMCLEHEDEKVNMYCVTDAQLICALCKLVGRHRDHQVAALSE [D20A],-0.15 ± 0.059
11,GLMCLEHEDEKVNMYCVTDLQLICALCKLVGRHRDHQVAALSE [D20L],-0.404 ± 0.069
12,GLMCLEHEDEKVNMYCVTDTQLICALCKLVGRHRDHQVAALSE [D20T],-0.232 ± 0.087
13,GLMCLEHEDEKVNMYCVTDSQLICALCKLVGRHRDHQVAALSE [D20S],-0.038 ± 0.064
14,GLMCLEHEDEKVNMYCVTDPQLICALCKLVGRHRDHQVAALSE [D20P],-0.573 ± 0.1
15,GLMCLEHEDEKVNMYCVTDNQLICALCKLVGRHRDHQVAALSE [D20N],0.033 ± 0.19
16,GLMCLEHEDEKVNMYCVTDGQLICALCKLVGRHRDHQVAALSE [D20G],-0.075 ± 0.05
17,GLMCLEHEDEKVNMYCVTDDMLICALCKLVGRHRDHQVAALSE [Q21M],0.052 ± 0.094
18,GLMCLEHEDEKVNMYCVTDDELICALCKLVGRHRDHQVAALSE [Q21E],-0.047 ± 0.063
19,GLMCLEHEDEKVNMYCVTDDVLICALCKLVGRHRDHQVAALSE [Q21V],0.044 ± 0.05
20,GLMCLEHEDEKVNMYCVTDDCLICALCKLVGRHRDHQVAALSE [Q21C],-0.174 ± 0.074

row,Variant,abundance fitness
1,GLMCLEHEDEKVNMYCVTDDLLICALCKLVGRHRDHQVAALSE [Q21L],-0.154 ± 0.07
2,GLMCLEHEDEKVNMYCVTDDALICALCKLVGRHRDHQVAALSE [Q21A],0.003 ± 0.058
3,GLMCLEHEDEKVNMYCVTDDILICALCKLVGRHRDHQVAALSE [Q21I],-0.133 ± 0.2
4,GLMCLEHEDEKVNMYCVTDDPLICALCKLVGRHRDHQVAALSE [Q21P],-0.524 ± 0.14
5,GLMCLEHEDEKVNMYCVTDDGLICALCKLVGRHRDHQVAALSE [Q21G],-0.133 ± 0.046
6,GLMCLEHEDEKVNMYCVTDDHLICALCKLVGRHRDHQVAALSE [Q21H],0.231 ± 0.15
7,GLMCLEHEDEKVNMYCVTDDSLICALCKLVGRHRDHQVAALSE [Q21S],0.042 ± 0.074
8,GLMCLEHEDEKVNMYCVTDDWLICALCKLVGRHRDHQVAALSE [Q21W],-0.682 ± 0.092
9,GLMCLEHEDEKVNMYCVTDDRLICALCKLVGRHRDHQVAALSE [Q21R],0.031 ± 0.051
10,GLMCLEHEDEKVNMYCVTDDTLICALCKLVGRHRDHQVAALSE [Q21T],-0.064 ± 0.099
11,GLMCLEHEDEKVNMYCVTDDYLICALCKLVGRHRDHQVAALSE [Q21Y],-0.171 ± 0.14
12,GLMCLEHEDEKVNMYCVTDDDLICALCKLVGRHRDHQVAALSE [Q21D],-0.099 ± 0.11
13,GLMCLEHEDEKVNMYCVTDDFLICALCKLVGRHRDHQVAALSE [Q21F],-0.07 ± 0.28
14,GLMCLEHEDEKVNMYCVTDDQQICALCKLVGRHRDHQVAALSE [L22Q],0.29 ± 0.12
15,GLMCLEHEDEKVNMYCVTDDQRICALCKLVGRHRDHQVAALSE [L22R],0.311 ± 0.059
16,GLMCLEHEDEKVNMYCVTDDQKICALCKLVGRHRDHQVAALSE [L22K],0.33 ± 0.076
17,GLMCLEHEDEKVNMYCVTDDQTICALCKLVGRHRDHQVAALSE [L22T],0.204 ± 0.075
18,GLMCLEHEDEKVNMYCVTDDQWICALCKLVGRHRDHQVAALSE [L22W],0.024 ± 0.079
19,GLMCLEHEDEKVNMYCVTDDQGICALCKLVGRHRDHQVAALSE [L22G],0.364 ± 0.063
20,GLMCLEHEDEKVNMYCVTDDQVICALCKLVGRHRDHQVAALSE [L22V],-0.025 ± 0.074

row,Variant,abundance fitness
1,GLMCLEHEDEKVNMYCVTDDQHICALCKLVGRHRDHQVAALSE [L22H],0.482 ± 0.19
2,GLMCLEHEDEKVNMYCVTDDQSICALCKLVGRHRDHQVAALSE [L22S],0.316 ± 0.11
3,GLMCLEHEDEKVNMYCVTDDQPICALCKLVGRHRDHQVAALSE [L22P],0.428 ± 0.094
4,GLMCLEHEDEKVNMYCVTDDQNICALCKLVGRHRDHQVAALSE [L22N],0.698 ± 0.26
5,GLMCLEHEDEKVNMYCVTDDQMICALCKLVGRHRDHQVAALSE [L22M],0.004 ± 0.11
6,GLMCLEHEDEKVNMYCVTDDQEICALCKLVGRHRDHQVAALSE [L22E],0.377 ± 0.053
7,GLMCLEHEDEKVNMYCVTGDQLICALCKLVGRHRDHQVAALSE [D19G],-0.72 ± 0.087
8,GLMCLEHEDEKVNMYCVTWDQLICALCKLVGRHRDHQVAALSE [D19W],-0.779 ± 0.1
9,GLMCLEHEDEKVNMYCVTNDQLICALCKLVGRHRDHQVAALSE [D19N],-0.095 ± 0.22
10,GLMCLEHEDEKVNMYCVTPDQLICALCKLVGRHRDHQVAALSE [D19P],-0.723 ± 0.16
11,GLMCLEHEDEKVNMYCVTLDQLICALCKLVGRHRDHQVAALSE [D19L],-1.04 ± 0.22
12,GLMCLEHEDEKVNMYCVTSDQLICALCKLVGRHRDHQVAALSE [D19S],-0.377 ± 0.096
13,GLMCLEHEDEKVNMYCVTVDQLICALCKLVGRHRDHQVAALSE [D19V],-1.02 ± 0.14
14,GLMCLEHEDEKVNMYCVTMDQLICALCKLVGRHRDHQVAALSE [D19M],-1.1 ± 0.19
15,GLMCLEHEDEKVNMYCVTTDQLICALCKLVGRHRDHQVAALSE [D19T],-0.984 ± 0.31
16,GLMCLEHEDEKVNMYCVTKDQLICALCKLVGRHRDHQVAALSE [D19K],-0.759 ± 0.18
17,GLMCLEHEDEKVNMYCVTHDQLICALCKLVGRHRDHQVAALSE [D19H],-0.496 ± 0.16
18,GLMCLEHEDEKVNMYCVTQDQLICALCKLVGRHRDHQVAALSE [D19Q],-0.557 ± 0.14
19,GLMCLEHEDEKVNMYCVTRDQLICALCKLVGRHRDHQVAALSE [D19R],-0.65 ± 0.073
